Reference: publication PMC5172437
Where two headings read alike, the source gives them in different places.

Legend:
[1] = target: T1, human tumor necrosis factor alpha (hTNFa) (human, UniProt P01375 77-233); assay: ELONA
[2] = target: T1, human tumor necrosis factor alpha …; assay: ELONA; remark: listed apart in the source
[3] = target: T1, human tumor necrosis factor alpha …
[4] = target: T1, human tumor necrosis factor alpha …; remark: listed apart in the source
[5] = target: T1, human tumor necrosis factor alpha …; assay: ELONA; remark: listed apart in the source

T1 sequence (P01375 77-233): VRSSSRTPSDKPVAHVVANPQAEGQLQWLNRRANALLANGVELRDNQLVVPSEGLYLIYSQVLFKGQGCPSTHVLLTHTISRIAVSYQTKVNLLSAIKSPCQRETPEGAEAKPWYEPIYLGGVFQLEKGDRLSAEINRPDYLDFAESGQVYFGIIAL

Binder	binding result [1]	further results
GGUCCCACAUAGGUUGGUCUUGUUGUAUGGGCUGUUUGCA (ssRNA) [18.10 random region]	binds	
CGUAUAUACGGAUUAGGUUGUAGCUCAGACCAGUAAUGUC (ssRNA) [14.8 random region]		binding result [2]: binds
UACGGAUUAGGUUGUAGCUCAGACCAGUA (ssRNA) [T4.14.8 (29 nt)]		binding result [3]: binds
CGUUGUAGUAGUGGCUUGGGCAUAACUCAGUUAAACACUA (ssRNA) [20.4 random region]	binds	
CGCAUCGUUUGCGUGGCGUGUCCGGGCGCCGAUUCGUAAA (ssRNA) [7.5 random region]		binding result [2]: binds
UCAUGGUGUGUGAGUUAGCUCACGUGCCGUUUCGAAGGCG (ssRNA) [13.2 random region]		binding result [2]: binds
AGGACGUACUUGGAAAAGAGGCGCGAAGAACCUGGUAUGU (ssRNA) [8.6 random region]	binds	
CCCCGGGUUCUGUAUGAUCCGACCGGUCAGAUAAGACCAC (ssRNA) [3.1 random region]	binds	
CAUGGGCUAGACCGGCAUAAAACUGCUGUAGUUGCACGCC (ssRNA) [17.9 random region]	binds	
GGAGUAUCUGAUGACAAUUCGGAGCUCC (ssRNA) [T3.11.7 (28 nt)]		binding result [4]: binds
CAAGCCGAGGGGGAGUAUCUGAUGACAAUUCGGAGCUCCA (ssRNA) [11.7 random region]		binding result [5]: binds
CGUGCUAGAUGCUACGAGUGGUCUCCUCACGUAGAAGGGG (ssRNA) [16.3 random region]	binds	
